In publication PMC10360443 (Science immunology, 2023):

Target: HHLA2 (recombinant, SPR analyte) (human, UniProt Q9UM44 23-414)
Assay: SPR

- Kd: 48.9 µM
B1: KIR3DL3 (recombinant, coupled to the streptavidin sensor chip) (receptor)
chain: QDKPFLSAWPGTVVSEGQHVTLQCRSRLGFNEFSLSKEDGMPVPELYNRIFRNSFLMGPVTPAHAGTYRCCSSHPHSPTGWSAPSNPVVIMVTGVHRKPSLLAHPGPLVKSGETVILQCWSDVRFERFLLHREGITEDPLRLVGQLHDAGSQVNYSMGPMTPALAGTYRCFGSVTHLPYELSAPSDPLDIVVVGLYGKPSLSAQPGPTVQAGENVTLSCSSRSLFDIYHLSREAEAGELRLTAVLRVNGTFQANFPLGPVTHGGNYRCFGSFRALPHAWSDPSDPLPVSVTGNSRHL
